Experimental data from patent US20260274944A1 (VECT HORUS, published 2026).
Changes are numbered by the printed parent chain.

B1: VHH 2-siSOD1m (other)
VHH: QVQLVQSGGGLVQAGGSLRLSCAASGSVSSIYAMGWYRQAPGKQREWVTTITGRGITDYAASVKGRFTISRDTAKNAVYLQMNNLKPEDTARYYCKIDRRGYAPYWGQGTQVTVSSAAAEQKLISEEDLNGAAHHHHHHGS
modifications: siRNA siSOD1m linked through an azido linker put by bacterial transglutaminase on the glutamine residue of the myc tag, then copper-free click chemistry
notes: VHH-siRNA conjugate
B2: VHH 5 (VHH)
VHH: EVQLVESGGGLVQPGGSLRLSCAASGTIFSLNPMGWYRQAPGKQLELVALISDSGTANYADFVRGRFTISRDTTKKTLYLQMNSLEPEDTAVYYCRSTFAAGNFYWGQGTQVTVSS
notes: also called sdAb VHH 5
B3: VHH 3-Fc (Fc fusion)
chain: QVQLVQSGGGLVQAGGSLRLSCVASGRTFSNYAMAWFRQAPGEEREFVARISWSGGRTSYADSVKGRFTISRDNAKNTVYLQMISLKPEDTAVYYCATEAGAFGGVYSSTGSYDYWGQGTQVTVSS
notes: VHH with no tag fused to a human IgG1 Fc; also called VHHRAGE-Fc fusion; VHH-RAGE-Fc; not shown: human IgG1-Fc fragment encoded by the pINFUSE-IgG1-Fc2 vector (InvivoGen)
B4: VHH 4 (VHH)
VHH: B3 chain with Q1E, Q6E, S54R, T98S, A100G, S109A
notes: also called sdAb VHH 4
B5: VHH 3 (VHH)
VHH: B3 chain
notes: also called sdAb VHH 3
B6: VHH 1 (VHH)
VHH: QVQLVQSGGGLVQPGGSLRLSCAVSGSIFSSATMGWYRQAPGKQRELAARISSGGSTNYLDSVKGRFTISRDNAKNTVYLQMNSLKLEDTAVYYCRLQANFGLVDYWGKGTQVTVSS
notes: also called sdAb VHH 1
B7: VHH 1-Fc (Fc fusion)
chain: B6 VHH
notes: as for B3
B8: VHH 2 (VHH)
VHH: QVQLVQSGGGLVQAGGSLRLSCAASGSVSSIYAMGWYRQAPGKQREWVTTITGRGITDYAASVKGRFTISRDTAKNAVYLQMNNLKPEDTARYYCKIDRRGYAPYWGQGTQVTVSS
notes: also called sdAb VHH 2
B9: VHH 2-Fc (Fc fusion)
chain: B8 VHH
notes: as for B3
B10: VHH 4-siSOD1m (other)
VHH: EVQLVESGGGLVQAGGSLRLSCVASGRTFSNYAMAWFRQAPGEEREFVARISWRGGRTSYADSVKGRFTISRDNAKNTVYLQMISLKPEDTAVYYCASEGGAFGGVYSATGSYDYWGQGTQVTVSSAAAEQKLISEEDLNGAAHHHHHHGS
modifications: siRNA siSOD1m linked through an azido linker put by bacterial transglutaminase on the glutamine residue of the myc tag, then copper-free click chemistry
notes: VHH-siRNA conjugate

Experiments:
[1] = biological target: T1, mouse RAGE (mRAGE) fused to EGFP, expressed on CHO cells (mouse, UniProt Q62151 23-402); assay: apparent Kd (Kd app), flow cytometry on CHO-mRAGE-EGFP cells
T1 construct: whole, on cells; also called CHO-mRAGE-EGFP; murine RAGE; not shown: EGFP from the pEGFP-N1 vector (Clontech), fused at the C-terminal (intracellular) end
T1 sequence (Q62151 23-402): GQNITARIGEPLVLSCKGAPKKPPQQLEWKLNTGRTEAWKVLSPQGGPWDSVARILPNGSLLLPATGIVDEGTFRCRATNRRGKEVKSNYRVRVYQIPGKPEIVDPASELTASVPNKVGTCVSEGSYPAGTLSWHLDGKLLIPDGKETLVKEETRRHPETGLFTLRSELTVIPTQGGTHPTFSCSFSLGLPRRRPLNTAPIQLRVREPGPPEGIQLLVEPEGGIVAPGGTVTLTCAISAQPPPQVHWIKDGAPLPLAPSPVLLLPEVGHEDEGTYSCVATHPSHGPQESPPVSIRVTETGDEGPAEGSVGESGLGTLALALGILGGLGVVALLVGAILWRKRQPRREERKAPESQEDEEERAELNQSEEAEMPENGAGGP
Description: The binding properties of VHHs with affinity for RAGE were tested using flow cytometry, and apparent affinities (K_{d app}) were determined. All experiments were performed in 96 well plates using 2×10⁵ cells/well, at 4° C. with shaking. CHO cell lines expressing RAGE fused to EGFP or CHO WT cells were saturated with PBS/BSA 2% solution during 30 min to avoid nonspecific binding, followed by incubation with purified VHHs at concentrations ranging from 50 μM to 0.5 nM for 1 hr. After one wash in PBS/BSA 2%, cells were incubated for 1 hr with an anti-6His tag antibody (mouse), washed twice with PBS/BSA 2%, and incubated for 1 hr with an Alexa647-conjugated anti-mouse secondary antibody. After two last washes in PBS/BSA 2%, cells were fixed by incubation for 15 min with PBS/PFA 2%, washed once with PBS and finally resuspended in PBS. Fluorescence levels were assessed using an Attune N×T flow cytometer (Thermo Fisher Scientific).
The binding properties of VHH-siRNA conjugates with affinity for RAGE were tested using flow cytometry, and apparent affinities (K_{d app}) were determined. The same protocol as the one described in example IV was used.
All VHH-siRNAs bound the mRAGE and induced a concentration-dependent shift of the signal (FIG. 4-A), confirming that the VHH conjugated to both the siTTRm and the siSOD1m retained the binding to the receptor of interest. The VHH-siRNA K_{d app} were calculated using GraphPad Prism software.

[2] = biological target: T2, human RAGE (hRAGE) fused to EGFP, stably expressed on CHO cells (human, UniProt Q15109 23-404); assay: apparent Kd (Kd app), flow cytometry on CHO-hRAGE-EGFP cells
T2 construct: whole, on cells; also called CHO-hRAGE-EGFP; human receptor; not shown: EGFP from the pEGFP-N1 vector (Clontech), fused at the C-terminal (intracellular) end
T2 sequence (Q15109 23-404): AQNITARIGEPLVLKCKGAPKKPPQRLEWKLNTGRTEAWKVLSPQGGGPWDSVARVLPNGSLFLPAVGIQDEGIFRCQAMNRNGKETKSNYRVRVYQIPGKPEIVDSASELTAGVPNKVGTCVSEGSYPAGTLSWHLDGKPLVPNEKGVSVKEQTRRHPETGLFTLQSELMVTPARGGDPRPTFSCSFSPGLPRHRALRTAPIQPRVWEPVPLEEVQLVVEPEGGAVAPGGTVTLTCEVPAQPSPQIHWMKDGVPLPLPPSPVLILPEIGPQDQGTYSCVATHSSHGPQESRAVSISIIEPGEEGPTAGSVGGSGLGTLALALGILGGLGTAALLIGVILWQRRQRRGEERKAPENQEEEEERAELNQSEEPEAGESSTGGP
Description: FIG. 3. Apparent Kd determination of VHHs on hRAGE- and mRAGE-expressing CHO cell lines. (A) CHO-hRAGE-EGFP and CHO-mRAGE-EGFP cells were incubated 1 hr at 4° C. with increasing concentrations of VHHs, detected with a mouse anti-6His (1/1000) and an Alexa647-conjugated anti-mouse secondary antibody (1/400). Measurements were performed using flow cytometry. The ratio of fluorescence intensity for each point was normalized with the corresponding EGFP signal (receptor expression) and gave rise to the arbitrary units. Data are presented as mean±SEM of at least 3 independent experiments. (B) Characteristics of selected VHHs: Molecular Weight (Da); Apparent Kd on human RAGE (nM); Apparent Kd on mouse RAGE (nM). Data are presented as mean±SEM of at least 3 independent experiments.
The binding properties of VHHs with affinity for RAGE were tested using flow cytometry, and apparent affinities (K_{d app}) were determined. […] Fluorescence levels were assessed using an Attune N×T flow cytometer (Thermo Fisher Scientific).
Three VHHs (VHH 1, 2 and 5) out of 5 bound both the human and the mouse RAGE and induced a concentration-dependent shift of the signal (FIG. 3-A). […] Moreover, no labelling of the CHO WT control cells was detected with all the tested VHHs (not shown). The VHH K_{d app} were calculated using GraphPad Prism software.

[3] = biological target: T3, HA-mRAGE (mouse, UniProt Q62151 23-402); assay: immunocytochemistry, 250 nM on transfected CHO cells, anti-human Fc detection
T3 construct: mature; Transiently expressed on CHO cells; also called full-length mRAGE with N-terminal HA tag; not shown: HA tag at the N-terminus; EGFP fused at the C-terminal end (pEGFP-N1)
T3 sequence (Q62151 23-402): as the sequence (Q62151 23-402) above
Excerpt: To determine the binding domain of VHH-RAGE-Fc, inventors suppressed RAGE domains sequentially, expressed the resulting truncated constructs mRAGE-ΔV, mRAGE-ΔV-C1 (FIG. 9-A) and compared VHHRAGE-Fc binding on the full-length construct (mRAGE and HA-mRAGE) in transfected CHO cells. An HA tag was introduced in the N-ter of each receptor to validate appropriate presentation of the extracellular domain using anti-HA, non-permeabilizing immunocytochemistry. EGFP was fused at the C-terminal end to enable easy visualization of the truncated and full-length receptor by fluorescence microscopy. […] The synthetised DNA fragments were cloned into a pEGFP-N1 plasmid after restriction using XhoI EcoRI and ligation. CHO WT cells were transfected using jetPEI™ with the different plasmid constructs according to the manufacturer's instructions.
For immunocytochemistry, living transfected cells were incubated with 250 nM VHH-RAGE-hFc or anti-HA antibody for 1 hr at 37° C. Cells were then fixed using PBS-PFA 4%.

[4] = biological target: T1, mouse RAGE (mRAGE) fused to EGFP, …; assay: immunocytochemistry, 50 nM on living CHO-mRAGE-EGFP cells, anti-hFc detection
Description: (§1) Immunocytochemistry experiments on CHO cell lines expressing the mouse or human RAGE fused to EGFP were performed to confirm the ability of fusion proteins to bind the RAGE. For these experiments, VHH-Fc fusion proteins were incubated at 50 nM on living cells, detected using an Alexa594-conjugated anti-hFc antibody after cells fixation with PBS-PFA 4% and permeabilization of the cell membrane with PBS-0.1% Triton X100 and photographed with a confocal microscope.

[5] = biological target: T1, mouse RAGE (mRAGE) fused to EGFP, …; assay: flow cytometry competition on CHO-mRAGE-EGFP cells; competitor against tracer VHH 1-Fc
Description: FIG. 8. Competition assay between VHHs and VHH 1-Fc. (A) Principle of the competition test. In a first step, CHO-mRAGE-EGFP cells were incubated 1 hr at 4° C. with the competitor in dilution series. Second, the tracer at EC80-90 was added and incubated for 1 hr at 4° C. […] Measurements were performed using flow cytometry. (B) CHO-mRAGE-EGFP cells were incubated with the competitors (VHHs). Tracer (VHH 1-Fc) at EC80 was then added and detected with Alexa647-conjugated anti-hFc antibody (1/400).

[6] = biological target: T2, human RAGE (hRAGE) fused to EGFP, …; assay: flow cytometry on CHO-hRAGE-EGFP cells, 4 °C, anti-6His detection
[7] = biological target: T1, mouse RAGE (mRAGE) fused to EGFP, …; assay: flow cytometry on CHO-mRAGE-EGFP cells, 4 °C, anti-6His detection
[8] = biological target: T4, RAGE in mice lungs (endogenous mouse RAGE at the alveolar epithelium) (mouse, UniProt Q62151 23-402); assay: double immunofluorescence on lung sections of mice injected at 35 nmol/kg, 48 hours post injection
T4 construct: whole, on cells; also called RAGE in the lung
T4 sequence (Q62151 23-402): as above
Description: FIG. 10. Cellular binding/co-localization of VHH-Fc on RAGE in mice lungs. Immunocytochemistry was performed on the lungs of mice injected with VHH ctrl-Fc, VHH 1-Fc and VHH 5-Fc into tail vein at 35 nmol/kg. The mice were perfused with saline 48 hours post injection and the lungs were incubated in PFA 4% overnight. Lungs were extensively washed in PBS 1× and incubated 2 days in sucrose 30%. Double-immunofluorescent staining of lung tissue with anti-RAGE (Alexa Fluor 488, green) and with VHH-Fc (Alexa Fluor 594, red) antibodies were performed on lung sections. Cell nuclei were labeled with Hoechst #33342 at 0.5 μg/ml (blue). Co-labeling appears in yellow/orange in the merged pictures (right panel). Representative photographs were taken with a confocal microscope with 20× and 63× magnification.
To confirm the ability of fusion proteins to bind RAGE in vivo, immunocytochemistry experiments were performed on lungs of mice injected into the tail vein at 35 nmol/kg with VHH ctrl-Fc, VHH 1-Fc and VHH 5-Fc. Mice were perfused with saline 48 hours post injection and lungs were incubated in PFA 4% overnight. Lungs were extensively washed in PBS 1× and incubated 2 days in sucrose 30% before being snap frozen. The fixed lung was embedded in OCT and cut in 14 μm thick sections. […] Cell nuclei were labeled with Hoechst #33342. […]

[9] = biological target: T2, human RAGE (hRAGE) fused to EGFP, …; assay: immunocytochemistry, 50 nM on living CHO-hRAGE-EGFP cells, anti-hFc detection
Description: as §1

| Binder | Kd [1] | binding result [3] | binding result [4] | other results |
| --- | --- | --- | --- | --- |
| B1 | 238 nM | – | – | – |
| B2 | 1490 nM | – | – | Kd [2]: 204 nM |
| B3 | – | binds | binds | – |
| B4 | 32 nM | – | – | – |
| B5 | – | – | – | binding result [5]: binds |
| B6 | – | – | – | binding result [6]: binds; binding result [7]: binds |
| B7 | – | binds | binds | binding result [8]: binds; binding result [9]: binds |
| B8 | – | – | – | Kd [2]: 350 nM; binding result [7]: binds |
| B9 | – | binds | binds | – |
| B10 | 6.8 nM | – | – | – |
